Source: US20040005659

Target: T1, β-casein (Sigma, St Louis, Mo.), P02666
T1 chain: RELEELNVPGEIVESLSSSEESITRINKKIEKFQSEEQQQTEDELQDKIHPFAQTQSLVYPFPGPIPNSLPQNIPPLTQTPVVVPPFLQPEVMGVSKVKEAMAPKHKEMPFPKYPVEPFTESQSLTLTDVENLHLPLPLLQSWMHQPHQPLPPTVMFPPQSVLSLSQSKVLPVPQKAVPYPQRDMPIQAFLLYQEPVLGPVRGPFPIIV

B1: PRSS11-L CDS-HAHIS (recombinant human PRSS11-L protease with a C-terminal HA6HIS epitope/affinity tag, expressed in baculovirus-infected Sf9 cells) (protein)
chain: MHLALPASAGLHQLSSPRYKFNFIADVVEKIAPAVVHIELFLRHPLFGRNVPLSSGSGFIMSEAGLIITNAHVVSSNSAAPGRQQLKVQLQNGDSYEATIKDIDKKSDIATIKIHPKKKLPVLLLGHSADLRPGEFVVAIGSPFALQNTVTTGIVSTAQREGRELGLRDSDMDYIQTDAIINYGNSGGPLVNLDGEVIGINTLKVTAGISFAIPSDRITRFLTEFQDKQIKDWKKRFIGIRMRTITPSLVDELKASNPDFPEVSSGIYVQEVAPNSPSQRGGIQDGDIIVKVNGRPLVDSSELQEAVLTESPLLLEVRRGNDDLLFSIAPEVVM
B1 was tested. Which “cleavage of β-casein, SDS-PAGE with Coomassie Brilliant Blue staining” value did it give?
Its value is “The proteolytic activity of PRSS11-L was further confirmed by its cleavage of casein”.
